Data: publication PMC10462004

Molecular target: mouse PD-1 (programmed cell death-1), wild type, expressed on CHO cells (mouse) (UniProt Q02242)
Experiment: biomembrane force probe

Sequence of UniProt Q02242 (Q02242 25-288): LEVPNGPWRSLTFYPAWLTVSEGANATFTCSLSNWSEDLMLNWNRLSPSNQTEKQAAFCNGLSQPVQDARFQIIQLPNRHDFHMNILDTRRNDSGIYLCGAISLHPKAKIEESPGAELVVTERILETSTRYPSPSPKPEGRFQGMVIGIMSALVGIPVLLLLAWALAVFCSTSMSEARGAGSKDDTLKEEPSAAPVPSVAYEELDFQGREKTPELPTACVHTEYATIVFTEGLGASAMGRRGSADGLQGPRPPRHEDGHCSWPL

Substance: mouse PD-L2 with C-terminal biotin (from UniProt Q9WUL5 20-221) (ligand)
- F1/2 (force at which 50% of the bonds rupture): 12.1 pN
